Assay results published in publication PMC8659110 (2021).
Primed or numbered codes have the meaning given here. Where no end group is shown, it is not given here. Cy5 = Cy5 fluorophore (fluorescent dye); NODAGA′ = chelator

Target: NRP-1 recombinant chimeric protein ( (recombinant human/rat NRP-1 …, UniProt O14786 22-856))
Experiment: ELISA; competition with biotinylated VEGF-165

Chain of NRP-1 recombinant chimeric protein ( (O14786 22-856, change not shown): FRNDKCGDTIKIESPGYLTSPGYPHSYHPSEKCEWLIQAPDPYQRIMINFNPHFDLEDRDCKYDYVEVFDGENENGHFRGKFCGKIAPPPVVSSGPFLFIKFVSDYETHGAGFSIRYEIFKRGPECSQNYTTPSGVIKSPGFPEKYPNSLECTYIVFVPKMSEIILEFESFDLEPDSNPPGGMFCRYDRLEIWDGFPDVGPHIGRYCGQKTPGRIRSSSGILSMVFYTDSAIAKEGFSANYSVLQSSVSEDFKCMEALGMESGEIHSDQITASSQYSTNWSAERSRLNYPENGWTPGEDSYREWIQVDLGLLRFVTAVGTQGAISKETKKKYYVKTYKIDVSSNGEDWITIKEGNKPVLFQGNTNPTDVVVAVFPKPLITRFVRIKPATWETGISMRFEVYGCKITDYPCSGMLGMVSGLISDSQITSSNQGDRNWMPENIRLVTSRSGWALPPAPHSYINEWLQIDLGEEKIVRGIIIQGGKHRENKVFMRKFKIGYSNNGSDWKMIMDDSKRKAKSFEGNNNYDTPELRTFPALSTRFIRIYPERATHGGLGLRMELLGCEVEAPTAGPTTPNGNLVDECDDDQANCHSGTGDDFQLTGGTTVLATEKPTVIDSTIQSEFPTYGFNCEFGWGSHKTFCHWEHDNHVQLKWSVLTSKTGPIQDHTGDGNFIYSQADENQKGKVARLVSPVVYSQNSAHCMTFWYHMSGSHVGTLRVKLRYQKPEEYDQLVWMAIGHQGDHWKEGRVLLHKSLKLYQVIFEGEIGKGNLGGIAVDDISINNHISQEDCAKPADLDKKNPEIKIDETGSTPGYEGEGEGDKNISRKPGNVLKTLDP

**Q.** Which IC50 does the source give for {NODAGA′}-K(Cy5)DKPPR (also: NODAGA complexed with natGa) [^natGa-NODAGA-K(Cy5)DKPPR] here?
**A.** 100 nM

**Q.** KDKPPR [KDKPPR peptide] was tested. Which IC50 did it give?
**A.** 2000 nM
